Test results reported in publication PMC10117100.

Target: Gluc1-E2F4 (human), Q16254
Test: split reporter (BiFC, NanoBiT); Gaussia princeps protein complementation assay (GPCA): Gluc1 and Gluc2 N-terminal fusions co-transfected in HEK293T, luminescence of lysates after 48 h as normalized luminescence ratio (NLR); pairs count as interacting if NLR is above 5
Conditions: remark: other sources report otherwise

Chain of Gluc1-E2F4 (human), Q16254 (Q16254 whole entry, the tested form may be a part): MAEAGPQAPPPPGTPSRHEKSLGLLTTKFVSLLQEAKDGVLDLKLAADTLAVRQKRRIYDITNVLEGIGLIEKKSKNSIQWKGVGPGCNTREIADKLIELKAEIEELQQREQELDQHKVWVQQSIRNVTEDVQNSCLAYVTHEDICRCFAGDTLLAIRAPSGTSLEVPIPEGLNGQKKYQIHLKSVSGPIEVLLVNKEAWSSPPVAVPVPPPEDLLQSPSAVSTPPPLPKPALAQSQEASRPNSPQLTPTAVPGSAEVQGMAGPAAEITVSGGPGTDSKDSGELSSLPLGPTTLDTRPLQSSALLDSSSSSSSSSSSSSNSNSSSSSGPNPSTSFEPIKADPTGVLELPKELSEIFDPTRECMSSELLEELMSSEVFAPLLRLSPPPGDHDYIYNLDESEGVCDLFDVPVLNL

B1: Gluc2-p130, Q08999 1-1139 (natural protein)
chain: MPSGGDQSPPPPPPPPAAAASDEEEEDDGEAEDAAPPAESPTPQIQQRFDELCSRLNMDEAARAEAWDSYRSMSESYTLEGNDLHWLACALYVACRKSVPTVSKGTVEGNYVSLTRILKCSEQSLIEFFNKMKKWEDMANLPPHFRERTERLERNFTVSAVIFKKYEPIFQDIFKYPQEEQPRQQRGRKQRRQPCTVSEIFHFCWVLFIYAKGNFPMISDDLVNSYHLLLCALDLVYGNALQCSNRKELVNPNFKGLSEDFHAKDSKPSSDPPCIIEKLCSLHDGLVLEAKGIKEHFWKPYIRKLYEKKLLKGKEENLTGFLEPGNFGESFKAINKAYEEYVLSVGNLDERIFLGEDAEEEIGTLSRCLNAGSGTETAERVQMKNILQQHFDKSKALRISTPLTGVRYIKENSPCVTPVSTATHSLSRLHTMLTGLRNAPSEKLEQILRTCSRDPTQAIANRLKEMFEIYSQHFQPDEDFSNCAKEIASKHFRFAEMLYYKVLESVIEQEQKRLGDMDLSGILEQDAFHRSLLACCLEVVTFSYKPPGNFPFITEIFDVPLYHFYKVIEVFIRAEDGLCREVVKHLNQIEEQILDHLAWKPESPLWEKIRDNENRVPTCEEVMPPQNLERADEICIAGSPLTPRRVTEVRADTGGLGRSITSPTTLYDRYSSPPASTTRRRLFVENDSPSDGGTPGRMPPQPLVNAVPVQNVSGETVSVTPVPGQTLVTMATATVTANNGQTVTIPVQGIANENGGITFFPVQVNVGGQAQAVTGSIQPLSAQALAGSLSSQQVTGTTLQVPGQVAIQQISPGGQQQKQGQSVTSSSNRPRKTSSLSLFFRKVYHLAAVRLRDLCAKLDISDELRKKIWTCFEFSIIQCPELMMDRHLDQLLMCAIYVMAKVTKEDKSFQNIMRCYRTQPQARSQVYRSVLIKGKRKRRNSGSSDSRSHQNSPTELNKDRTSRDSSPVMRSSSTLPVPQPSSAPPTPTRLTGANSDMEEEERGDLIQFYNNIYIKQIKTFAMKYSQANMDAPPLSPYPFVRTGSPRRIQLSQNHPVYISPHKNETMLSPREKIFYYFSNSPSKRLREINSMIRTGETPTKKRGILLEDGSESPAKRICPENHSALLRRLQDVANDRGSH
With B1 the normalized luminescence ratio (NLR) was > 40.
